According to article PMC12547741, “DUF-721 and N-terminal extension of the helicase loader DciA bind ssDNA to promote replicative DnaB helicase loading in Caulobacter crescentus”:

B1: 80-mer oligo 1790 (ssDNA)
DNA: TCCTTGTTATCCACAGGGCAGTTTTTTTTTTTTTTTTTTTTTTTTTTTTTTTTTTTTTTTTGTGCGATATAGTTCTCCGA

Columns and labels:
ccDnaB-His (wild type) = experiment: pull-down (Ni-conjugated magnetic beads), quantified from SDS-14% PAGE with Coomassie staining; conditions: sfTq2-DciA 850 nM, three independent reactions per legend, parent: est. 1.4, read off a plot
[1] = biological target: ccDnaB-His (wild type) (Caulobacter crescentus); experiment: SEC; ccDnaB-His alone on Superdex 200; 25 mM Tris-HCl pH 7.5, 300 mM NaCl, 20% glycerol, 0.1 mM ATP, 5 mM MgCl2; fractions by SDS-PAGE; hexamer
His-DciA R106A [2] = biological target: T1, His-DciA R106A (UniProt A0A0H3C5R2 1-179, R106A); experiment: EMSA; 50 mM K-glutamate; EMSA: 20 mM Tris-HCl pH 7.5, 10 mM Mg acetate, 50 or 150 mM K-glutamate, 0.1 mg/ml BSA, 10% glycerol, 2 mM ATP, 12.5 nM DNA, 5 min on ice; M13 pull-down: Tris pH 7.5, 10 mM Mg acetate, 50 mM K-glutamate, 0.1 mM ATP, 0.1 mg/ml BSA, 30 C; conditions: protein: recombinant; tags: N-terminal His6; label: 5'-FAM
His-DciA WT [3] = biological target: T2, His-DciA WT (UniProt A0A0H3C5R2 1-179); experiment: as above; conditions: protein: recombinant; tags: N-terminal His6; label: 5'-FAM
His-DciA R106A [4] = biological target: T1, His-DciA R106A; experiment: EMSA; 150 mM K-glutamate; EMSA: 20 mM Tris-HCl pH 7.5, 10 mM Mg acetate, 50 or 150 mM K-glutamate, 0.1 mg/ml BSA, 10% glycerol, 2 mM ATP, 12.5 nM DNA, 5 min on ice; M13 pull-down: Tris pH 7.5, 10 mM Mg acetate, 50 mM K-glutamate, 0.1 mM ATP, 0.1 mg/ml BSA, 30 C; conditions: protein: recombinant; tags: N-terminal His6; label: 5'-FAM
His-DciA 4A = His-DciA 4A (UniProt A0A0H3C5R2 1-179, H98A;Q99A;Q102A;R106A); experiment: as above; conditions: protein: recombinant; tags: N-terminal His6; label: 5'-FAM
His-DciA WT [5] = biological target: T2, His-DciA WT; experiment: as above; conditions: protein: recombinant; tags: N-terminal His6; label: 5'-FAM
His-DciA del1-45 = His-DciA del1-45 (UniProt A0A0H3C5R2 46-179, del1-45); experiment: as above; conditions: protein: recombinant; tags: N-terminal His6; label: 5'-FAM
[6] = biological target: His-DciA R106A L119S (RL) (UniProt A0A0H3C5R2 1-179, R106A;L119S); experiment: as above; conditions: protein: recombinant; tags: N-terminal His6; label: 5'-FAM
His-DciA 4A2S = His-DciA 4A2S (UniProt A0A0H3C5R2 1-179, H98A;Q99A;Q102A;R106A;M109S;L110S); experiment: as above; conditions: protein: recombinant; tags: N-terminal His6; label: 5'-FAM
His-DciA L119S = His-DciA L119S (UniProt A0A0H3C5R2 1-179, L119S); experiment: as above; conditions: protein: recombinant; tags: N-terminal His6; label: 5'-FAM
Sequence of His-DciA L119S (A0A0H3C5R2 entry or part of it L119S | L119S L119S): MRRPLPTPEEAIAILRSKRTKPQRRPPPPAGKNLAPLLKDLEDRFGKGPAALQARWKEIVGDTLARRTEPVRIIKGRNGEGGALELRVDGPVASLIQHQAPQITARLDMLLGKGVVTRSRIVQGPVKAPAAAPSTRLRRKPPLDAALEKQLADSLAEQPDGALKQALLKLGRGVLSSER

T2 sequence (A0A0H3C5R2 entry or part of it): as the sequence (A0A0H3C5R2 entry or part of it L119S | L119S L119S) above, with S119L counted along it
T1 sequence (A0A0H3C5R2 entry or part of it R106A | R106A R106A): as the sequence (A0A0H3C5R2 entry or part of it L119S | L119S L119S) above, with R106A, S119L counted along it
Sequence of His-DciA R106A L119S (RL) (A0A0H3C5R2 entry or part of it R106A;L119S | R106A L119S R106A L119S): as the sequence (A0A0H3C5R2 entry or part of it L119S | L119S L119S) above, with R106A counted along it
Sequence of His-DciA del1-45 (A0A0H3C5R2 entry or part of it del1-45): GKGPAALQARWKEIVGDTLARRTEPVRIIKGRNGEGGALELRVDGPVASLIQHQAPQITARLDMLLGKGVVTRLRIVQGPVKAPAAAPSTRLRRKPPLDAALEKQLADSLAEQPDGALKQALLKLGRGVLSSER
Sequence of His-DciA 4A (A0A0H3C5R2 entry or part of it H98A;Q99A;Q102A;R106A): as the sequence (A0A0H3C5R2 entry or part of it L119S | L119S L119S) above, with H98A, Q99A, Q102A, R106A, S119L counted along it
Sequence of His-DciA 4A2S (A0A0H3C5R2 entry or part of it H98A;Q99A;Q102A;R106A;M109S;L110S): as the sequence (A0A0H3C5R2 entry or part of it L119S | L119S L119S) above, with H98A, Q99A, Q102A, R106A, M109S, L110S, S119L counted along it

| stoichiometry N [1] | Molecule | response (ccDnaB-His (wild type)) [AU] | Kd (His-DciA R106A [2]) [nM] | Kd (His-DciA WT [3]) [nM] | Kd (His-DciA R106A [4]) [nM] | Kd (His-DciA 4A) [nM] | Kd (His-DciA WT [5]) [nM] | Kd (His-DciA del1-45) [nM] | Kd [6] [nM] | Kd (His-DciA 4A2S) [nM] | Kd (His-DciA L119S) [nM] |
| --- | --- | --- | --- | --- | --- | --- | --- | --- | --- | --- | --- |
| – | superfolder mTurquoise2 fluorescent protein-tagged DciA (sfTq2-DciA), wild type R106A | 1.2 | – | – | – | – | – | – | – | – | – |
| 6 | ccDnaB-His (wild type) (enzyme) | – | – | – | – | – | – | – | – | – | – |
| – | B1 | – | 152 ± 75.4 | 49.7 ± 24.4 | 115 ± 40.3 | 115 ± 40.3 | 25.4 ± 8.4 | 115 ± 40.3 | 115 ± 40.3 | 115 ± 40.3 | 115 ± 40.3 |
| – | TTTTTTTTTTTTTTTTTTTTTTTTTTTTTTTTTTT (ssDNA) [35-mer oligo 2201] | – | 35.7 ± 17.6 | 19.6 ± 7.03 | 543 ± 9.95 | – | 109 ± 21 | 520 ± 30.6 | 665 ± 47.9 | – | – |
